Consider 2 molecules from patent publication US20200216522A1 (DENALI THERAPEUTICS, published 2020).

“And” between values parts separate entries of the source, which are not always exact repeats. Equal values may be shown once.

Broadly, the Kd is the equilibrium constant for the complex coming apart.

In experiment [1] the target is T1, hyperphosphorylated recombinant human Tau441 (p-Tau) (human, UniProt P10636 1-758, phosphorylated in vitro with PKA and GSK3beta; sites not listed).
T1 construct: also called p-Tau (2N4R); phosphorylated r-Tau
Nature of the experiment: Fab ELISA. How it is done: (§1) Half-area ELISA plates (Costar™) were coated overnight at 4° C. with 25 μL per well of 0.5 μg/mL r-Tau or p-Tau. The plates were washed three times with PBST using a BioTek® plate washer. The plates were then blocked for one hour at room temperature with 100 μL per well of PBSA. After washing three times with PBST, the periplasmically-expressed Fabs were added ([…]) and the plates were incubated for one hour. The plates were subsequently washed three times with PBST, and 25 μL per well of PBSA containing a 1:5,000 dilution of HRP-conjugated rabbit anti-human kappa (obtained from Bethyl Laboratories) was added. The plates were incubated at room temperature for 30 minutes, then washed three times with PBST. The plates were developed by adding 25 μL per well of TMB substrate (obtained from Thermo Fisher) and quenched with 2N H₂SO₄. The signal was quantified on a BioTek® plate reader at A₄₅₀. Wells with signal greater than 5-fold over background for both r-Tau and p-Tau were considered positive and the clones were re-arrayed from the primary culture for confirmation of binding (by repeat of ELISA) and sequencing of the variable regions.
(§2) ELISAs were performed essentially as described above, but coating was performed using 1 μg/mL of each recombinant Tau species and using a 1:1 dilution (in PBS with 0.1% BSA, 0.05% Tween®) of Fab containing supernatant. The results of the ELISAs, showing Fab binding to cyno Tau and mouse Tau, as well as binding to phosphorylated full-length human Tau and the human Tau isoforms, are shown in Table 1 below.

The target of experiment [2] is human Tau splice isoform 1N4R (Tau412) (human, UniProt P10636 1-758). Nature of the experiment: Fab ELISA. How it is done: as §1, §2
On the technique in general: An ELISA detects its analyte on a solid surface through an enzyme-linked reagent.

Experiment [3] deals with T2, C-terminal truncated human Tau (Tau(1-421)) (human, UniProt P10636 1-738).
T2 construct: also called 1-421 (2N4R)
Nature of the experiment: Fab ELISA. The procedure:
as §1, §2

Experiment [4] deals with human Tau splice isoform 1N3R (Tau381) (human, UniProt P10636 1-758). Nature of the experiment: Fab ELISA. The procedure: as §1, §2
Experiment [5] addresses human Tau splice isoform 2N3R (Tau410) (human, UniProt P10636 1-758). Nature of the experiment: Fab ELISA. How it is done:
as §1, §2

For experiment [6], the target named is T3, full-length human Tau (Tau441; 2N4R), recombinant (human, UniProt P10636 1-758).
T3 construct: made in E. coli, His6-Smt3 tag removed; biotinylated through amines for Octet and phage work; also called r-Tau; recombinant Tau
Nature of the experiment: Fab ELISA. How it is done: as §1, §2

The target in experiment [7] is human Tau splice isoform 0N4R (Tau383) (human, UniProt P10636 1-758). Nature of the experiment: Fab ELISA. How it is done:
as §1, §2

A further experiment addresses mouse Tau (mouse, UniProt P10637 2-733). Nature of the experiment: Fab ELISA. The procedure:
as §1, §2

The next experiment deals with T4, cynomolgus monkey Tau (cynomolgus monkey, UniProt P57786 2-459 (rhesus entry)).
T4 construct: also called cyno Tau; cyno-Tau
Nature of the experiment: Fab ELISA. The procedure: as §1, §2

For experiment [8], the target named is T5, N-terminal truncated human Tau (Tau(50-441)) (human, UniProt P10636 50-758).
T5 construct: also called 50-441 (2N4R)
Nature of the experiment: Fab ELISA. The procedure:
as §1, §2

Experiment [9] deals with human Tau splice isoform 0N3R (Tau352) (human, UniProt P10636 1-758). Nature of the experiment: Fab ELISA. The procedure:
as §1, §2

Experiment [10] concerns the target T3, full-length human Tau (Tau441; 2N4R), …. Nature of the experiment: Octet binning on biotin-r-Tau; competitor 1D10. How it is done: (§3) Epitope binning assays were performed using a FortéBio® Octet® RED384 instrument using FortéBio® Streptavidin biosensors. Biotinylated recombinant Tau was diluted to a concentration of 2 μg/mL in kinetic buffer (obtained from FortéBio®) and captured onto individual biosensors for 1 minute. A baseline was then established for 1 minute in kinetic buffer. The loaded biosensors were dipped into 10 μg/mL of the first chimeric IgG antibody until signal saturation, followed by dipping into 1 μg/mL of a second antibody. The binding for the second antibody was normalized to its total binding in the absence of the first antibody.
Background: In BLI a coated tip is dipped into the sample, and binding shifts an interference pattern.

For experiment [11] the target is unchanged. Nature of the experiment: Octet binning on biotin-r-Tau; competitor 1G7. How it is done:
as §3

Experiment [12] has the same target. Nature of the experiment: Octet binning on biotin-r-Tau; competitor 1C7. The procedure: as §3
For experiment [13] the target is unchanged. Nature of the experiment: Octet binning on biotin-r-Tau; row antibody Ab107 (anti-BACE1 control). How it is done: as §3
For experiment [14] the target is unchanged. Nature of the experiment: Octet binning on biotin-r-Tau; competitor 1A5. How it is done:
as §3

Experiment [15] shares this target. Nature of the experiment: SPR Biacore. (In general: In SPR one partner is held on a chip, and binding of the other changes the refractive index at the surface.)
For experiment [16] the target is unchanged. Nature of the experiment: SPR Biacore, IgG captured, r-Tau injected. The procedure: The affinity of chimeric IgG antibodies 1C7, 1A1, 1A5, 1D10, and 1G7 for recombinant Tau was determined by surface plasmon resonance using a Biacore™ T200 instrument. Biacore™ Series S CM5 sensor chips were immobilized with monoclonal mouse anti-human IgG (Fc) antibody (human antibody capture kit from GE Healthcare). 1 μg/mL of antibody was captured for 1 minute on each flow cell and serial 3-fold dilutions of recombinant Tau were injected at a flow rate of […]. Each sample was analyzed with a 3-minute association and a 10-minute dissociation. After each injection the chip was regenerated using 3M MgCl₂. Binding response was corrected by subtracting the RU from a flow cell capturing an irrelevant IgG at similar density. A 1:1 Languir model of simultaneous fitting of kₒₙ and koff was used for kinetics analysis.

T3 sequence (P10636 other isoform, or with tags, fused parts or gaps limits assumed): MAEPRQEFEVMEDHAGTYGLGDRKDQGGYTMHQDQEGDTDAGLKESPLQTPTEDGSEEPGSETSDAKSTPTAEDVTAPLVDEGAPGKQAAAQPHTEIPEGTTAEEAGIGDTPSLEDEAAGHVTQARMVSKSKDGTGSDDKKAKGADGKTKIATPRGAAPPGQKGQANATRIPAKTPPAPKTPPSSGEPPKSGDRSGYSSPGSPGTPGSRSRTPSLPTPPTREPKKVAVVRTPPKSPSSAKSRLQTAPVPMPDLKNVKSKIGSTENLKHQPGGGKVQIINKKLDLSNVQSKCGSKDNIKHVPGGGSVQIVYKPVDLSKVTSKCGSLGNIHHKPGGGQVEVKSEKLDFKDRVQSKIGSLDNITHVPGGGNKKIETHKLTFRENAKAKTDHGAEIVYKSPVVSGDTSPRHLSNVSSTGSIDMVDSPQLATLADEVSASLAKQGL
T4 sequence (P57786 other isoform, or with tags, fused parts or gaps limits assumed): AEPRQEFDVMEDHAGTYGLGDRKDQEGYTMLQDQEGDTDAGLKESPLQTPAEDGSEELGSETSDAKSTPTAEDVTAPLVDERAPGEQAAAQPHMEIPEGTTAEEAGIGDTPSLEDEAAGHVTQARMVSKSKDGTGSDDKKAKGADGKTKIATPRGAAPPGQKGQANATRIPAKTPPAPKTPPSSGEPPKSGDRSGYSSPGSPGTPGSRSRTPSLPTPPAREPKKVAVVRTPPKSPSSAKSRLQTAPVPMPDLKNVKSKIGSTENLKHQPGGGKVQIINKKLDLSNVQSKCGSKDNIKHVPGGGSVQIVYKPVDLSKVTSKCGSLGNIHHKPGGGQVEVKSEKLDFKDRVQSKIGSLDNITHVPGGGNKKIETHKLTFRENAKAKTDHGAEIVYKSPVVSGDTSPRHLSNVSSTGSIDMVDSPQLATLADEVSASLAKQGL
Sequence of human Tau splice isoform 1N3R (Tau381) (P10636 other isoform, or with tags, fused parts or gaps limits assumed): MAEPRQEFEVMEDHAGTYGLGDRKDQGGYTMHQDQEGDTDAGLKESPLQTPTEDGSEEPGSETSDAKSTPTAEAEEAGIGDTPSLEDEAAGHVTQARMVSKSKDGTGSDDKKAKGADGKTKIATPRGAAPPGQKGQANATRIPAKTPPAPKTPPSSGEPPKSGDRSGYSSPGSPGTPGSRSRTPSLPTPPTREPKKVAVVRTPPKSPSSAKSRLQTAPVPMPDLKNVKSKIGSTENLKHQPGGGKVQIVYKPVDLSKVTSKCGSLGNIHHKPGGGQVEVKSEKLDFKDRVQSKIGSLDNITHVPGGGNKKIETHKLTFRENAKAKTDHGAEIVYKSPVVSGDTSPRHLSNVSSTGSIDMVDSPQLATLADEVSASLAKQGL
Sequence of human Tau splice isoform 2N3R (Tau410) (P10636 other isoform, or with tags, fused parts or gaps limits assumed): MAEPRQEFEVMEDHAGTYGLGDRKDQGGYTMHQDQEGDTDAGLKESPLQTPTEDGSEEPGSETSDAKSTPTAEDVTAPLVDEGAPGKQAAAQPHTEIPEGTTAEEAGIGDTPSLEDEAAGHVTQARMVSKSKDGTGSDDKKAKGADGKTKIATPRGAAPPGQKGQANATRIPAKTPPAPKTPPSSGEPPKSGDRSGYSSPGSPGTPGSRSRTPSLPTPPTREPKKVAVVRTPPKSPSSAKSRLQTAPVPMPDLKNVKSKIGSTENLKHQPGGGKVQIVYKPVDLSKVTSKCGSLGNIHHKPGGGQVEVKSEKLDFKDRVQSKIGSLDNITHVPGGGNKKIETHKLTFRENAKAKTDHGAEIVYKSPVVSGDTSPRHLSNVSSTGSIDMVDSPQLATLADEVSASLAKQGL
T2 sequence (P10636 other isoform, or with tags, fused parts or gaps limits assumed): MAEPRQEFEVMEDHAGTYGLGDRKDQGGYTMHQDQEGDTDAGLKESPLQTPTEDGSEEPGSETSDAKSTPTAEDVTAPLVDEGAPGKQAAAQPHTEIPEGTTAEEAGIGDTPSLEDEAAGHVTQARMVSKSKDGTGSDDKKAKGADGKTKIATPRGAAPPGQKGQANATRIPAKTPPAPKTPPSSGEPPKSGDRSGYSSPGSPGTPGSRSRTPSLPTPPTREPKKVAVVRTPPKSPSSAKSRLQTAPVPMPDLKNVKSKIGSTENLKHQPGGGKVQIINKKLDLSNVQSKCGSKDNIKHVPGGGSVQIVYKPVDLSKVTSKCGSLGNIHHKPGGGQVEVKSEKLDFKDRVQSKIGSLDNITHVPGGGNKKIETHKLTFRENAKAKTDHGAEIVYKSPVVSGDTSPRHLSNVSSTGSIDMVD
Sequence of mouse Tau (P10637 other isoform, or with tags, fused parts or gaps limits assumed): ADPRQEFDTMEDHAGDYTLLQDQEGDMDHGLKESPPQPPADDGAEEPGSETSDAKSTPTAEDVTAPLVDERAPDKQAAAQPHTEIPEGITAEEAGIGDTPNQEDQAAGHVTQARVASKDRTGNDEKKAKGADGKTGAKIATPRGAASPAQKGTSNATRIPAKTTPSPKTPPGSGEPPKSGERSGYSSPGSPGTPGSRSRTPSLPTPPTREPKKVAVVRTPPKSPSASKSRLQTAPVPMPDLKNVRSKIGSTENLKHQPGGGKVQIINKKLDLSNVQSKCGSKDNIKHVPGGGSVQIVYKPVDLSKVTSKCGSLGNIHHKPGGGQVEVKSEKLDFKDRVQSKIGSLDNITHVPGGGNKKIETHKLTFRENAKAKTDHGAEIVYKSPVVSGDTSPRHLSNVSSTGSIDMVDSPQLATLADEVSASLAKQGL
Sequence of human Tau splice isoform 0N3R (Tau352) (P10636 other isoform, or with tags, fused parts or gaps limits assumed): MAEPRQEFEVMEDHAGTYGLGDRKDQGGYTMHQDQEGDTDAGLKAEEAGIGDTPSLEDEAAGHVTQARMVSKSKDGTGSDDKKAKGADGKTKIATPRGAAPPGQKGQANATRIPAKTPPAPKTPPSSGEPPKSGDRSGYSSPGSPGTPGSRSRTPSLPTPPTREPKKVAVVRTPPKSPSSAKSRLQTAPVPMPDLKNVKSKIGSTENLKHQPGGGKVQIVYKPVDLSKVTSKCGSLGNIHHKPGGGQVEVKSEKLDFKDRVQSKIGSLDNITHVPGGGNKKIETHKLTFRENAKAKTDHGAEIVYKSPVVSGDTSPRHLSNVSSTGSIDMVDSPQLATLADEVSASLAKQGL
Sequence of human Tau splice isoform 1N4R (Tau412) (P10636 other isoform, or with tags, fused parts or gaps limits assumed): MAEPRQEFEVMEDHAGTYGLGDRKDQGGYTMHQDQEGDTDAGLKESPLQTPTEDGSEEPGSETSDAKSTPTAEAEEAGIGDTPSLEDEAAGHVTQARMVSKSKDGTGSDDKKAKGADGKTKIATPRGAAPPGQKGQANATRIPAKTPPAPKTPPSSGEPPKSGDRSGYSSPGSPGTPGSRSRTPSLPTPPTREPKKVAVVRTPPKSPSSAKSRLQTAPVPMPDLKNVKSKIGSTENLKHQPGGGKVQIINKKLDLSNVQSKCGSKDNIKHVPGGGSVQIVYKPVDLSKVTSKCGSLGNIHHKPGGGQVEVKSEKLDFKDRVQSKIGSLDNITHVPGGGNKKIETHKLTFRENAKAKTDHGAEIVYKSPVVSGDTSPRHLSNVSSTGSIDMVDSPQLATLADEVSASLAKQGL
T5 sequence (P10636 other isoform, or with tags, fused parts or gaps limits assumed): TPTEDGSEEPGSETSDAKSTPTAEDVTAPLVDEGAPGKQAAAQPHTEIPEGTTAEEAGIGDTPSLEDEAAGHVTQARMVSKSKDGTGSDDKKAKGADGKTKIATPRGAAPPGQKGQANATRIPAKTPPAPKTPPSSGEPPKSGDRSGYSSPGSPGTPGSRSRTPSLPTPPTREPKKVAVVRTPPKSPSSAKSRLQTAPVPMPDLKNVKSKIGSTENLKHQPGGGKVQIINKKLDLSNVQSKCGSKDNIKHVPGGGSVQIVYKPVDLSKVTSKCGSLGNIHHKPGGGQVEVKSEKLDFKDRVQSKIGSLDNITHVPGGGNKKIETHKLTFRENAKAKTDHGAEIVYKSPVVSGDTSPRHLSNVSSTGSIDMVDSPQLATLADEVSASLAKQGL
Sequence of human Tau splice isoform 0N4R (Tau383) (P10636 other isoform, or with tags, fused parts or gaps limits assumed): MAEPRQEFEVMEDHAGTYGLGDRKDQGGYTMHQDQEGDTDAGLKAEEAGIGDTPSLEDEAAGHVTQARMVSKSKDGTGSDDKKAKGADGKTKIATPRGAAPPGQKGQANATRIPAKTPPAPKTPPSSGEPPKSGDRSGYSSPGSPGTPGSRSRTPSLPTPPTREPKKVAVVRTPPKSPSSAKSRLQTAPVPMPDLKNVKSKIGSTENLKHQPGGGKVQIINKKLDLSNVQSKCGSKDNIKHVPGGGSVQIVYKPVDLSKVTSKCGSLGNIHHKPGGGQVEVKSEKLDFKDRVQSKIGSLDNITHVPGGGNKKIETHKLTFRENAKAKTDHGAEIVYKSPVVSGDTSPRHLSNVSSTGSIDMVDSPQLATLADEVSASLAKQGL

B1: Clone 1G7 Fab (Fab, V domains shown)
VH: EVQLQQSGAEVVRPGASVKLSCTTSGFNIKDSLMHWLKQRPEQGLEWIGWIDPEDGETKYAPKFQDKATITADTSSNTAYLQLSSLTSGDTAIYYCARRDWEGPWGQGTLVTVSA
VL: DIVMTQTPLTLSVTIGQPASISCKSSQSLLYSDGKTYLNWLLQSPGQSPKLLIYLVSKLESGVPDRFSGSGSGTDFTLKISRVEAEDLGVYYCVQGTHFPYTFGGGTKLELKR
notes: crude periplasmic Fab; mouse V regions joined to human CH1 and human kappa constant
Turning to B1, the A450 avg. in [1] stood at 1.61; in [2] it was 1.8; in experiment [3], 1.23; in experiment [4], 2.16; in experiment [5], 2; in experiment [6], 2.04. Moreover, the A450 avg. stood at 1.88 in experiment [7]; 1.51 with mouse Tau; 1.53 with cynomolgus monkey Tau; 1.68 in experiment [8]; 0.725 in experiment [9].

B2: chimeric IgG clone 1C7 (antibody, V domains shown)
VH: EVKLVESGGGLVKPGGSLKLSCAASGFTFSSYGMSWVRQTPEKRLEWVASISGDGGSYIHYADSVKGRFTISRDSAKNTLYLQMSSLRSEDTALYYCARLPYWGQGTLVTVSA
VL: DIVMTQSPSSLTVTAGEKVTMSCKSSQSLLNSGNQKNYLTWYQQKPGQPPKLLIYWASTRESGVPDRFTGSGSGTDFTLTISNVQSEDLAEYFCQQYNSYPLTFGAGTKLELKR
notes: mouse-human chimeric IgG from HEK293; also called 1C7.IgG; anti-Tau^1C7
Regarding B2, the “normalized binding of second antibody” value in experiment [10] turned out to be 0.82; in experiment [11], 0.84; in experiment [12], 0.03; in experiment [13], 1; in experiment [14], 0.88. Further, the dissociation constant Kd was 0.8 nM and 0.44 nM in experiment [15]; 0.2 nM in experiment [16].
